The values below come from PMC4349392.

A word on the Kd: it is a measure of binding affinity in units of concentration. High values mean lower affinity, low ones higher affinity.

For this test, the target named is YFP-tagged CaV1.3 IQ domain, prototypic (IQDY) (rat). Briefly: FRET or BRET. Background: Bioluminescence resonance energy transfer reports proximity on the nanometre scale.

“CFP-tagged calmodulin, wild type (CFP-CaMWT) (from UniProt P0DP29 1-149) (natural protein)” returned a K (a,EFF) (reciprocal D (free) units) of 0.000588, a Ka of 1.8e+07 M⁻¹ and a Kd of 0.055 µM.
